36 variants from the Human Domainome abundance scans (Beltran et al. 2025) can be followed below.

± gives the uncertainty stated by the source.

To fix the notation:
B1: Steroid hormone receptor ERR2, residues 100 to 176; numbered along this chain, O95718 (parent)
chain: KRLCLVCGDIASGYHYGVASCEACKAFFKRTIQGNIEYSCPATNECEITKRRRKSCQACRFMKCLKVGMLKEGVRLD

The data set covers variants of B1. In words: abundance fitness (aPCA) (normalised: wild type 0, dead -1); higher = more abundant; growth selection in yeast, the domain comes from the species named. Particulars: Homo sapiens.
On to KRLCLVCGDIASGYHYGVASCEACKAFFKRTIQGNIEYSCPATNECEITKRRCKSCQACRFMKCLKVGMLKEGVRLD [R53C], for which the abundance fitness was -0.103 ± 0.08.
For KRLCLVCGDIASGYHYGVASCEACKAFFKRTIQGNIEYSCPATNECEITKRRRKSCQACTFMKCLKVGMLKEGVRLD [R60T], the abundance fitness turned out to be 0.051 ± 0.057.
To KRLCLVCGDIASGYHYGVASCEACKAFFKRTIQGNIEYSCPATNECEITKRRRKSCQACKFMKCLKVGMLKEGVRLD [R60K] belongs 0.177 ± 0.055; to KRLCLVCGDIASGYHYGVASCEACKAFFKRTIQGNIEYSCPATNECEITKRRRKSAQACRFMKCLKVGMLKEGVRLD [C56A], -0.828 ± 0.12; to KRLCLVCGDIASGYHYGVASCEACKAFFKRTIQGNIEYSCPATNECEITKRRRKSDQACRFMKCLKVGMLKEGVRLD [C56D], -1.17 ± 0.32.
Turning to KRLCLVCGDIASGYHYGVASCEACKAFFKRTIQGNIEYSCPATNECEITKRGRKSCQACRFMKCLKVGMLKEGVRLD [R52G], the abundance fitness was 0.062 ± 0.045.
Take KRLCLVCGDIASGYHYGVASCEACKAFFKRTIQGNIEYSCPATNECEITKRRRKSCQACRFMKCLKDGMLKEGVRLD [V67D]: the abundance fitness was -0.646 ± 0.21.
Regarding KRLCLVCGDIASGYHYGVASCEACKAFFKRTIQGNIEYSCPATNECEITKRRRKSCQACRFMKCLKGGMLKEGVRLD [V67G], the abundance fitness was -0.425 ± 0.056.
KRLCLVCGDIASGYHYGVASCEHCKAFFKRTIQGNIEYSCPATNECEITKRRRKSCQACRFMKCLKVGMLKEGVRLD [A23H]: the abundance fitness was -0.16 ± 0.099.
In the case of KRLCLVCGDIASGYHYGVASCELCKAFFKRTIQGNIEYSCPATNECEITKRRRKSCQACRFMKCLKVGMLKEGVRLD [A23L], the abundance fitness was -0.371 ± 0.057.
To KRLCLVCGDIASGYHYGVASCENCKAFFKRTIQGNIEYSCPATNECEITKRRRKSCQACRFMKCLKVGMLKEGVRLD [A23N] belongs -0.658 ± 0.21; to KRLCLVCGDIASGYHYGVASCEACKAFFKRTIQGNIEYSCPATNECEITKRRRKSCNACRFMKCLKVGMLKEGVRLD [Q57N], -0.246 ± 0.087.
KRLCWVCGDIASGYHYGVASCEACKAFFKRTIQGNIEYSCPATNECEITKRRRKSCQACRFMKCLKVGMLKEGVRLD [L5W]: the abundance fitness was -0.332 ± 0.081.
In the case of KRLCLVCGDIASGYHYDVASCEACKAFFKRTIQGNIEYSCPATNECEITKRRRKSCQACRFMKCLKVGMLKEGVRLD [G17D], the abundance fitness is -0.091 ± 0.11.
As to KRLCLVCGDIASGYHYGVASCEACKAFFKRTIQGNIEYSCPATNECAITKRRRKSCQACRFMKCLKVGMLKEGVRLD [E47A], the abundance fitness was -0.102 ± 0.056.
Take KRLCLVCGDIASGYHYGVASCEACKAFFKRTIQGNIEYSCPATNECEITKRRRKSCQACRFMKCLKVGMLKEGVKLD [R75K]: the abundance fitness turned out to be 0.075 ± 0.057.
With KRLCLVCGDIASGYHYGVASCEACKAFFKRTIQGNIEYSCFATNECEITKRRRKSCQACRFMKCLKVGMLKEGVRLD [P41F], the abundance fitness is -0.214 ± 0.1.
KRLCLVCGDIASGYHYGVASCEACKAFFKRTIQGNIEYSCMATNECEITKRRRKSCQACRFMKCLKVGMLKEGVRLD [P41M]: the abundance fitness was -0.161 ± 0.061.
Take KRLCLVCGCIASGYHYGVASCEACKAFFKRTIQGNIEYSCPATNECEITKRRRKSCQACRFMKCLKVGMLKEGVRLD [D9C]: the abundance fitness is -0.829 ± 0.22.
With KRLCLVCGDIASGYHYGVASCEACKAFFSRTIQGNIEYSCPATNECEITKRRRKSCQACRFMKCLKVGMLKEGVRLD [K29S], the abundance fitness turned out to be 0.084 ± 0.045.
The same measure for KRLCLVCGDIASGYHYGVASCEACKAFFKRTIQGNTEYSCPATNECEITKRRRKSCQACRFMKCLKVGMLKEGVRLD [I36T]: -0.288 ± 0.078.
On to KRLCLVCGDIASGYHYGVASCEACKAFFKRTIQGNCEYSCPATNECEITKRRRKSCQACRFMKCLKVGMLKEGVRLD [I36C], for which the abundance fitness was -0.037 ± 0.076.
To KRLCLVCGDIASGYHYGVASCEACKAFFKRTIQGNIEYSCPATIECEITKRRRKSCQACRFMKCLKVGMLKEGVRLD [N44I] belongs 0.034 ± 0.13; to KRLCLVCGDIASGYHYGVASCEACKAFFKRTIQGNIEYSCPATYECEITKRRRKSCQACRFMKCLKVGMLKEGVRLD [N44Y], -0.278 ± 0.13.
As for KRLCLVCGDIASGYHYGVASCEACKAFFKRTIQGNIEYSCPATNECEIWKRRRKSCQACRFMKCLKVGMLKEGVRLD [T49W], the abundance fitness was -0.199 ± 0.092.
The same measure for KRLCLVCGDIASGYHYGVASCEACKAFFKRTIQGNIEYHCPATNECEITKRRRKSCQACRFMKCLKVGMLKEGVRLD [S39H]: 0.103 ± 0.13.
As for KRLCLVCGDIASGYHYGVASCEACKAFFKRTIQGNIEPSCPATNECEITKRRRKSCQACRFMKCLKVGMLKEGVRLD [Y38P], the abundance fitness is -0.547 ± 0.13.
Consider KRLCLVCGDIASGPHYGVASCEACKAFFKRTIQGNIEYSCPATNECEITKRRRKSCQACRFMKCLKVGMLKEGVRLD [Y14P], for which the abundance fitness was -0.315 ± 0.12.
As for KRLCLVCGDIASGYHYGVASCEACKAFFKRTIQGNIEYSCPATNECEITKRRRKSCQACRFMICLKVGMLKEGVRLD [K63I], the abundance fitness was -0.461 ± 0.19.
Take KRLCLVCGDIASGYHYGVASCEACKAFFKRTIQGNIEYSCPATNECEITKRRRKSCQACRFMVCLKVGMLKEGVRLD [K63V]: the abundance fitness is -0.522 ± 0.058.
As to KRLCLVCGDIASGYHYGVASCEACKAFFKRTIQGNIEYSCPATNECEITKRRRKSCQACRFMGCLKVGMLKEGVRLD [K63G], the abundance fitness was -0.534 ± 0.058.
On to KRLCLVCGDIASGYHYGVASCEACKAFFKRTIQGNIEYSCPATNECEITKRRRKSCQACRFMHCLKVGMLKEGVRLD [K63H], for which the abundance fitness is -0.359 ± 0.12.
On to KRLCLVCGDIASGYHYGVASCEACKAFFKRTIQGNIEYSCPATNLCEITKRRRKSCQACRFMKCLKVGMLKEGVRLD [E45L], for which the abundance fitness is -0.303 ± 0.06.
With KRLCLVCGDIASGYHYGVASCEACKAFFKMTIQGNIEYSCPATNECEITKRRRKSCQACRFMKCLKVGMLKEGVRLD [R30M], the abundance fitness was -0.355 ± 0.082.
In the case of KRLCLVCGDIASGYHYGVASCEACKAFFKITIQGNIEYSCPATNECEITKRRRKSCQACRFMKCLKVGMLKEGVRLD [R30I], the abundance fitness is -0.775 ± 0.24.
To KRLCLVCGDIASGYHYGVASCEACKAFFKNTIQGNIEYSCPATNECEITKRRRKSCQACRFMKCLKVGMLKEGVRLD [R30N] belongs -0.381 ± 0.38.
